We go through two molecules from doi:10.1101/2024.12.02.626503 (bioRxiv, 2024).

The star is where a group is joined. 5‑TAMRA = CN(C)c1ccc2c(-c3ccc(C(=O)*)cc3C(=O)[O-])c3ccc(N(C)C)cc3[o+]c2c1

The target in the assay is CaM WT (UniProt P0DP23 1-149). Briefly: fluorescence polarisation.

B1: 5-TAMRA-labeled CaV1.3 IQ peptide (peptide)
peptide: not shown
modifications: 5-TAMRA on the N-terminus; C-terminal amide (NH2)
Consider B1, for which the binding result was “binds”.

B2: 5-TAMRA-labeled CaV2.1 IQ peptide (peptide)
peptide: {5‑TAMRA}-TDLTVGKIYAAMMIMEYYRQSKAKKLQAMREEQD-NH2
SMILES: CC[C@H](C)[C@H](NC(=O)[C@H](CCCCN)NC(=O)CNC(=O)[C@@H](NC(=O)[C@@H](NC(=O)[C@H](CC(C)C)NC(=O)[C@H](CC(=O)O)NC(=O)[C@@H](NC(=O)c1ccc(-c2c3ccc(N(C)C)cc3[o+]c3cc(N(C)C)ccc23)c(C(=O)[O-])c1)[C@@H](C)O)[C@@H](C)O)C(C)C)C(=O)N[C@@H](Cc1ccc(O)cc1)C(=O)N[C@@H](C)C(=O)N[C@@H](C)C(=O)N[C@@H](CCSC)C(=O)N[C@@H](CCSC)C(=O)N[C@H](C(=O)N[C@@H](CCSC)C(=O)N[C@@H](CCC(=O)O)C(=O)N[C@@H](Cc1ccc(O)cc1)C(=O)N[C@@H](Cc1ccc(O)cc1)C(=O)N[C@@H](CCCNC(=N)N)C(=O)N[C@@H](CCC(N)=O)C(=O)N[C@@H](CO)C(=O)N[C@@H](CCCCN)C(=O)N[C@@H](C)C(=O)N[C@@H](CCCCN)C(=O)N[C@@H](CCCCN)C(=O)N[C@@H](CC(C)C)C(=O)N[C@@H](CCC(N)=O)C(=O)N[C@@H](C)C(=O)N[C@@H](CCSC)C(=O)N[C@@H](CCCNC(=N)N)C(=O)N[C@@H](CCC(=O)O)C(=O)N[C@@H](CCC(=O)O)C(=O)N[C@@H](CCC(N)=O)C(=O)N[C@@H](CC(=O)O)C(N)=O)[C@@H](C)CC
For B2, the binding result is listed as “binds”.
